# Reference: the supplement of paper PMC12042874
# ± gives the uncertainty stated by the source.
# Assay: amyloid nucleation score (Sup35N fusion, yeast selection) (log enrichment); library NNK2; higher = more nucleation; inactive = no reads after selection
# Procedure, shortened: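 Plasmid inserts were Illumina-sequenced at input and output from psi-negative yeast expressing Sup35N fused to peptides of 20 random codons. The yeast were induced with 100 μM copper sulfate for 24 hours and grown 7 days at 30°C on medium lacking adenine and uracil, and sequences with under 100 input reads were excluded. Nucleation score is the DiMSum log enrichment of output over input reads, centred on the mode score of non-aggregating sequences.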
row,Substance,amyloid nucleation score
1,RMKVDTLIWTPDWMEFVSII,-0.824 ± 1.1
2,RKAFIHVDKRLDSSIGTRSG,0.321 ± 0.41
3,CNRSCLLGDNPCTVWRITLF,-0.644 ± 0.48
4,ALRISQFCIL,-0.261 ± 1.1
5,PMCISLHVTTKGAMFNRGCF,7.18 ± 0.057
6,YVMTFYTFTTIGGPGPWYGL,inactive
7,FDLNSTVWIRCGGLILRLKP,0.01 ± 0.25
8,WHTYSRCSFRKRAGSLVAFP,0.365 ± 0.28
9,CNMIYNDKSLPKW,-0.26 ± 0.32
10,CYHRKFVLLFFLSNR,inactive
11,VFWLNGWYCYI,3.65 ± 0.056
12,FYVRSSTYFFHVYNYL,-0.387 ± 0.28
13,IVVQWMYVF,-0.382 ± 0.33
14,IRWNDSYKKECHIFFWRNRE,inactive
15,IDERATSEDSSGRKDSVTFL,-0.306 ± 0.28
16,PRSGVSAKQSCAWNVRDGDR,0.566 ± 0.39
17,ILVEGET,-0.263 ± 0.33
18,STAFFSIIIVFFISTCRETP,-0.78 ± 0.63
19,LLGTFYTS,-1 ± 1.1
20,FRIGHSHGYLLM,-0.805 ± 1.1
21,IPLRHVLLVMQCRPAL,0.915 ± 0.23
22,YLRCMRSLYSMNLCDAFNAA,inactive
23,RMNYTTEIGHSGFSGNIWTG,-0.45 ± 0.78
24,HYFEIVA,-0.315 ± 0.45
25,TASPSILTSKVTRYNLTVGC,-0.072 ± 0.5

row,Substance,amyloid nucleation score
1,LGEIVHLTVDASIRSSDR,5.13 ± 0.088
2,LSRRMDMRSSTSALHVSIQL,6.413 ± 0.064
3,RKGCWSL,1.65 ± 0.34
4,CRLCSGLREMQPIRLM,0.77 ± 0.51
5,RVTHRQDCMNVLGSRDYFER,-0.574 ± 0.39
6,HRVRSDDLVKAWPQWNALGA,1.18 ± 0.12
7,ALPTWWVDKNLLSCLYSELS,-0.104 ± 0.62
8,DNDYIYRYPWP,-0.288 ± 1.1
9,HDGICSNSGVVSINKNGNYD,1.27 ± 0.29
10,ILANFFCGDRNCL,7.128 ± 0.036
11,GSWFPFWLSASMHGSCIYTR,-0.576 ± 0.44
12,WRVLFQDFRCKINYLGSSSR,inactive
13,LFNVMFRSLMVGWMYHENGL,0.525 ± 0.44
14,CYGDAWSWEISMFCCVCRGF,7.523 ± 0.042
15,RYIIL,0.728 ± 0.62
16,MTMGEKTLCPWNHSDLAPSR,0.966 ± 0.49
17,RAEVNA,0.517 ± 0.26
18,RSCYVYRN,inactive
19,LYVGYSDMPVWSPASVCISI,0.001 ± 0.65
20,MSTIEYSDGVEGRHILCLIA,1.2 ± 0.35
21,IHVPIQ,-0.046 ± 0.54
22,HSFIGSRIVSFGFDVRGRWA,4.91 ± 0.059
23,SGMGSSYLFQFGSMYAFDDC,0.636 ± 0.34
24,ELFQIAVTRTKFLLVQSSYS,1.27 ± 0.18
25,NFHLSVRSDSYVL,3.14 ± 0.12

row,Substance,amyloid nucleation score
1,IIDYFSN,-0.953 ± 1.1
2,VLMDASTSVYTRSLMWKYMR,-0.162 ± 0.76
3,RWYYTRTF,-0.504 ± 1.1
4,ISDLFYANLLVIASNMVT,-1.46 ± 0.78
5,FSEWRIGKNMIFCDVIDVCE,1.94 ± 0.089
6,MKVLGNCISQIVNMDVWLLF,-1.73 ± 0.47
7,YGFASFSLYDYYLLVCSMFI,inactive
8,NYFSTDMGFCLRDTYCRCEI,4.68 ± 0.089
9,TTNSFINLVYMNMHK,6.63 ± 0.075
10,VEGLNCVLSDNKVANGS,-0.791 ± 0.44
11,VVAMDRCLQPVFLHLLSNNF,inactive
12,AINLGSDYKWSGMAFVKG,0.285 ± 1
13,TKATRINEGLLNLYALFGGK,0.974 ± 0.17
14,FLMRDFGMWFLFSNLLYITL,-0.628 ± 0.48
15,IYQVRLYD,-0.923 ± 0.5
16,ARSLTKSLARYRGRMQMTGP,0.929 ± 0.3
17,SRYVPMSFY,0.125 ± 0.79
18,GICHWGLLFTACFIPWRMRG,1.37 ± 0.32
19,SWCFVNGWWLYESAWEVMDS,-0.199 ± 1.1
20,NMYLDVRRSDGICGHIY,-1.28 ± 1
21,SSRCFSVYSDIMYGTFLS,inactive
22,HFCVLLLSFKNKILNYAFMH,-0.393 ± 1.1
23,RCLSYFGLKLLRVSRLFIDL,0.034 ± 0.28
24,ECGDRIL,0.536 ± 0.42
25,LVALVLPGRINENKYVCGD,-0.588 ± 0.49

row,Substance,amyloid nucleation score
1,CKLEQYRASWINLVTHLDEA,0.073 ± 0.63
2,FSMVT,0.057 ± 0.63
3,CFAVAKEWLNAAVHGVGQFP,0.123 ± 0.38
4,TVFSK,-0.998 ± 0.76
5,YMVEV,0.171 ± 0.34
6,NRGSGSAGMVSLLNNSWRWA,1.48 ± 0.43
7,RFCSMSLSWNYDSC,5.5 ± 0.079
8,RLLAVPLVRFRC,-0.23 ± 0.79
9,YENFLLLL,-0.676 ± 0.26
10,TRPRVKPWAMFRNIYD,-1.33 ± 0.44
11,MAYSGKVLFHVSDIVVWGKL,5.9 ± 0.086
12,GGPSGQFCYPGGNKGYCN,-0.724 ± 1
13,PYLFMESMKD,0.117 ± 0.79
14,CRINFTFDELVVVSQILTWL,4.07 ± 0.058
15,TGNTFIPSLFICRIEGSTSA,0.506 ± 0.44
16,AHLAKSKVGLFCHNVMFEVP,-0.381 ± 1.1
17,NVVGRYKSSDSLTYARWGWR,-0.064 ± 0.34
18,RLNCLSTWIVYCGPGYVSSV,-0.571 ± 0.45
19,FMGVKRVVTRVVCLQIGQPT,7.11 ± 0.071
20,CLISRLIVL,-0.038 ± 0.79
21,TTMIAVVRFTRD,2.07 ± 0.29
22,RGVVWRR,0.23 ± 0.63
23,TVNCSTCM,-0.562 ± 0.19
24,TWMGVHVRSYHQHC,0.878 ± 0.42
25,PDGTVYDGYSFCSVS,-0.615 ± 0.63

row,Substance,amyloid nucleation score
1,WTRAVKPPV,-0.113 ± 0.34
2,GSCSEHTKLLI,-0.455 ± 0.37
3,DLRHASVVVNRWILCLLGHI,0.106 ± 1
4,VLSMVVDKCLCTMCIQAIVL,9.711 ± 0.058
5,YNVDVFWYGLKFNDLVVVHF,3.73 ± 0.13
6,FLFMLLSPVSMARLDKVMMG,0.313 ± 0.65
7,RVVRGWIAYFW,0.374 ± 0.44
8,DFVDGVPL,0.415 ± 0.8
9,RLVWWVIWIPSKCMGADKNW,-0.029 ± 0.8
10,IAKPSVRHMYSFHVVDKTGH,inactive
11,MGCDGVSVLRWCTHIELGME,-0.782 ± 0.31
12,IRMNIFASSTR,3.11 ± 0.073
13,KLGIDRGTVCLWLSV,0.401 ± 0.14
14,MRPMIFPCYAMSSVSMLTSR,0.72 ± 0.27
15,RCRILA,2.51 ± 0.1
16,NTLDSGPNGGWLISTY,inactive
17,NMRRYLIDMKGVEVLGFMCS,inactive
18,LCIFYNWRCV,6.76 ± 0.024
19,NGLSSSTWGPWMYCWCVNMV,8.751 ± 0.057
20,NFGADVDRFNRVEGSSDFHG,0.285 ± 0.54
21,PCENLVCEII,inactive
22,SSYSDLIQLNSNWMWCICLL,8.101 ± 0.06
23,IKQSYTYNPK,1.87 ± 0.12
24,RYPVDRLVMSKRCPALRDGG,0.652 ± 0.23
25,FMGRMTLGHKNAWVSSDRH,-1.33 ± 0.79

row,Substance,amyloid nucleation score
1,VSSLMMVGNRFLIISWTESV,2.55 ± 0.092
2,DSVVLGGYGGFAAHKTRVIF,0.213 ± 0.43
3,ACVTPTAARNQIPALIYDTS,-0.135 ± 0.63
4,LAKWGKLCCVLYQYPVSLGE,0.71 ± 0.28
5,YKMILGCVVRVGYRILNCIR,0.295 ± 0.5
6,FVGVYMVLRSLGDRVSYVMF,inactive
7,TLYFYFRLSW,0.276 ± 0.8
8,EFDDYSFICRILSALFES,-0.153 ± 1.1
9,RFDPNTAWNLTFSSSRCVAG,0.91 ± 0.27
10,YGHLRVWKIPS,0.655 ± 0.65
11,CLITLLIMECKYAVDLWGSV,1.04 ± 0.34
12,ICIFIWIDASRACKPNIQCS,5.58 ± 0.062
13,VRLLMKLYNVPWVFH,inactive
14,ISWIFLKSAFTELAVFWDFI,0.726 ± 0.46
15,QGSNCLHYRLSIIS,-1.05 ± 1.1
16,YPPIISRLQY,inactive
17,VVYVVHFYFEYVGNVVARAK,inactive
18,VSVGWRVAVWWILKWEHLSR,9.541 ± 0.034
19,TTSLSYFLIQKALLWKVEYH,-1.38 ± 0.38
20,SFWDRGFNIRQ,6.145 ± 0.038
21,GMIVVTSGNSR,-0.037 ± 0.42
22,IMCLKFLNPTHFGCVGVCML,-1.22 ± 0.41
23,FNSSLWVFRIPNCCNRSAYC,inactive
24,RFYVGTIFSPYILLSSTECM,3.82 ± 0.06
25,LKTGSF,inactive

row,Substance,amyloid nucleation score
1,VSMRMVHGDYKWGRGCLIWI,-0.196 ± 0.45
2,TLGGSSTFRY,-0.152 ± 0.45
3,YMKVGFARWMGRPG,3.89 ± 0.06
4,SGWELYP,1.91 ± 0.11
5,RTGSALAHCFCDMQYVAATI,inactive
6,CYRYVGCSTYSTDQVVCAYK,6.006 ± 0.051
7,SDAIKWIYL,0.335 ± 0.29
8,ECFTMSRK,-1.28 ± 0.37
9,NWKANYEFVRLIVVLLSSRR,0.202 ± 0.64
10,WLNLARDWKWKSDINFWKVH,inactive
11,PMSFTLNRRQRRLHMLRTNN,0.854 ± 0.43
12,LYHVISSNWHEDNDMT,0.003 ± 0.23
13,SKLNAHVLAVFRLNEMNNHQ,3.48 ± 0.056
14,TFYYTAECWAWRNMQESSHT,0.054 ± 0.32
15,IREGMWCSRGMHHTRLRDFS,0.671 ± 0.64
16,CNDGGENGWKCTGR,0.497 ± 0.57
17,LRYKGMRFLNWMRNLKWDGI,0.022 ± 0.65
18,VLFSRTTSEEDKRSIISMNN,2.17 ± 0.18
19,YCNNYG,-2.65 ± 0.75
20,CERLNAPHLHQVRIPKRYNM,0.306 ± 0.64
21,CRDSPVKNQGPYLGFM,inactive
22,CSSSVNCMFITC,7.87 ± 0.047
23,ASMDSSVPRAGDAGRSDMSS,2.26 ± 0.14
